Data on five sequences can be found in the supplement of paper PMC5998384.

The test system of data set [1] is HeLa Kyoto. The experiment in a line: solubility in G1/S (NP-40 vs SDS abundance) (log2 ratio); higher = more soluble. To be noted: cell cycle stage: G1/S.
Data set [2] relates to HeLa Kyoto. Description: melting temperature (median over replicates), in situ; higher = more thermally stable.
Data set [3] has as its system HeLa Kyoto. Description: solubility change mitosis vs G1/S (difference of NP-40 vs SDS log2 ratios) (log2 ratio difference); higher = more soluble in mitosis.
Data set [4] relates to HeLa Kyoto. The experiment in a line: thermal stability score vs G1/S (z-score of summed log2 fold changes over temperatures); higher = more thermally stable than in G1/S.
Setting [5] is: cell cycle stage: early G1 (4.5 h after nocodazole release).
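Wherever melting temperature (median over replicates), in situ is given: HeLa Kyoto cells synchronized by double thymidine or nocodazole block, proteins quantified by TMT10plex mass spectrometry, three independent biological replicates.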
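Wherever solubility change mitosis vs G1/S (difference of NP-40 vs SDS log2 ratios) is given: synchronized HeLa Kyoto cells (double thymidine block for G1/S, nocodazole release for mitosis), protein amounts in NP-40 versus SDS lysates quantified by mass spectrometry, three biological replicates.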
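Wherever solubility in G1/S (NP-40 vs SDS abundance) is given: HeLa Kyoto cells arrested at G1/S by double thymidine block, proteins quantified by TMT10plex mass spectrometry in mild NP-40 versus SDS extracts, three biological replicates.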
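Wherever thermal stability score vs G1/S (z-score of summed log2 fold changes over temperatures) is given: synchronized HeLa Kyoto cells, proteins quantified by TMT10plex mass spectrometry, three biological replicates, mitosis taken 0.5 h after nocodazole release, G1/S directly after double thymidine block.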

“MPTGFVAPILCVLLPSPTREAATVASATGDSASERESAAPAAAPTAEAPPPSVVTRPEPQALPSPAIRAPLPDLYPFGTMRGGGFGDRDRDRDRGGFGARGGGGLPPKKFGNPGERLRKKKWDLSELPKFEKNFYVEHPEVARLTPYEVDELRRKKEITVRGGDVCPKPVFAFHHANFPQYVMDVLMDQHFTEPTPIQCQGFPLALSGRDMVGIAQTGSGKTLAYLLPAIVHINHQPYLERGDGPICLVLAPTRELAQQVQQVADDYGKCSRLKSTCIYGGAPKGPQIRDLERGVEICIATPGRLIDFLESGKTNLRRCTYLVLDEADRMLDMGFEPQIRKIVDQIRPDRQTLMWSATWPKEVRQLAEDFLRDYTQINVGNLELSANHNILQIVDVCMESEKDHKLIQLMEEIMAEKENKTIIFVETKRRCDDLTRRMRRDGWPAMCIHGDKSQPERDWVLNEFRSGKAPILIATDVASRGLDVEDVKFVINYDYPNSSEDYVHRIGRTARSTNKGTAYTFFTPGNLKQARELIKVLEEANQAINPKLMQLVDHRGGGGGGGGRSRYRTTSSANNPNLMYQDECDRRLRGVKDGGRRDSASYRDRSETDRAGYANGSGYGSPNSAFGAQAGQYTYGQGTYGAAAYGTSSYTAQEYGAGTYGASSTTSTGRSSQSSSQQFSGIGRSGQQPQPLMSQQFAQPPGATNMIGYMGQTAYQYPPPPPPPPPSRK [DDX17]”: the “solubility in G1/S (log2)” value in data set [1] was -0.381. Further, the results for the melting temperature in data set [2] (cell cycle stage: G1/S) and in data set [2] (cell cycle stage: mitosis) were 49.1 °C and 49.8 °C, respectively. For the same sequence, in data set [3], the “solubility change mitosis (log2)” value turned out to be 0.16. Besides, the thermal stability score in data set [4] (setting [5]) is 3.12; in data set [4] (cell cycle stage: mitosis), 5.66.

As to “MAACGRVRRMFRLSAALHLLLLFAAGAEKLPGQGVHSQGQGPGANFVSFVGQAGGGGPAGQQLPQLPQSSQLQQQQQQQQQQQQPQPPQPPFPAGGPPARRGGAGAGGGWKLAEEESCREDVTRVCPKHTWSNNLAVLECLQDVREPENEISSDCNHLLWNYKLNLTTDPKFESVAREVCKSTITEIKECADEPVGKGYMVSCLVDHRGNITEYQCHQYITKMTAIIFSDYRLICGFMDDCKNDINILKCGSIRLGEKDAHSQGEVVSCLEKGLVKEAEEREPKIQVSELCKKAILRVAELSSDDFHLDRHLYFACRDDRERFCENTQAGEGRVYKCLFNHKFEESMSEKCREALTTRQKLIAQDYKVSYSLAKSCKSDLKKYRCNVENLPRSREARLSYLLMCLESAVHRGRQVSSECQGEMLDYRRMLMEDFSLSPEIILSCRGEIEHHCSGLHRKGRTLHCLMKVVRGEKGNLGMNCQQALQTLIQETDPGADYRIDRALNEACESVIQTACKHIRSGDPMILSCLMEHLYTEKMVEDCEHRLLELQYFISRDWKLDPVLYRKCQGDASRLCHTHGWNETSEFMPQGAVFSCLYRHAYRTEEQGRRLSRECRAEVQRILHQRAMDVKLDPALQDKCLIDLGKWCSEKTETGQELECLQDHLDDLVVECRDIVGNLTELESEDIQIEALLMRACEPIIQNFCHDVADNQIDSGDLMECLIQNKHQKDMNEKCAIGVTHFQLVQMKDFRFSYKFKMACKEDVLKLCPNIKKKVDVVICLSTTVRNDTLQEAKEHRVSLKCRRQLRVEELEMTEDIRLEPDLYEACKSDIKNFCSAVQYGNAQIIECLKENKKQLSTRCHQKVFKLQETEMMDPELDYTLMRVCKQMIKRFCPEADSKTMLQCLKQNKNSELMDPKCKQMITKRQITQNTDYRLNPMLRKACKADIPKFCHGILTKAKDDSELEGQVISCLKLRYADQRLSSDCEDQIRIIIQESALDYRLDPQLQLHCSDEISSLCAEEAAAQEQTGQVEECLKVNLLKIKTELCKKEVLNMLKESKADIFVDPVLHTACALDIKHHCAAITPGRGRQMSCLMEALEDKRVRLQPECKKRLNDRIEMWSYAAKVAPADGFSDLAMQVMTSPSKNYILSVISGSICILFLIGLMCGRITKRVTRELKDR [GLG1]”, the “solubility in G1/S (log2)” value in data set [1] was -0.0893. Moreover, the values for the melting temperature in data set [2] (cell cycle stage: G1/S) and in data set [2] (cell cycle stage: mitosis) were 56.3 °C and 56.5 °C, respectively. In data set [3], the “solubility change mitosis (log2)” value is -0.0491. Besides, the results for the thermal stability score in data set [4] (setting [5]) and in data set [4] (cell cycle stage: mitosis) were -1.04 and -1.91, respectively.

Regarding “MEPRAVAEAVETGEEDVIMEALRSYNQEHSQSFTFDDAQQEDRKRLAELLVSVLEQGLPPSHRVIWLQSVRILSRDRNCLDPFTSRQSLQALACYADISVSEGSVPESADMDVVLESLKCLCNLVLSSPVAQMLAAEARLVVKLTERVGLYRERSFPHDVQFFDLRLLFLLTALRTDVRQQLFQELKGVRLLTDTLELTLGVTPEGNPPPTLLPSQETERAMEILKVLFNITLDSIKGEVDEEDAALYRHLGTLLRHCVMIATAGDRTEEFHGHAVNLLGNLPLKCLDVLLTLEPHGDSTEFMGVNMDVIRALLIFLEKRLHKTHRLKESVAPVLSVLTECARMHRPARKFLKAQVLPPLRDVRTRPEVGEMLRNKLVRLMTHLDTDVKRVAAEFLFVLCSESVPRFIKYTGYGNAAGLLAARGLMAGGRPEGQYSEDEDTDTDEYKEAKASINPVTGRVEEKPPNPMEGMTEEQKEHEAMKLVTMFDKLSRNRVIQPMGMSPRGHLTSLQDAMCETMEQQLSSDPDSDPD [RIC8A]”, in data set [1], the “solubility in G1/S (log2)” value was -0.322. The values for the melting temperature in data set [2] (cell cycle stage: G1/S) and in data set [2] (cell cycle stage: mitosis) were 51.6 °C and 49.6 °C, respectively. In data set [3], the “solubility change mitosis (log2)” value came out at 0.342. For the same sequence, the thermal stability score in data set [4] (setting [5]) was 1.87; in data set [4] (cell cycle stage: mitosis), -0.505.

For the sequence “MAFANFRRILRLSTFEKRKSREYEHVRRDLDPNEVWEIVGELGDGAFGKVYKAKNKETGALAAAKVIETKSEEELEDYIVEIEILATCDHPYIVKLLGAYYHDGKLWIMIEFCPGGAVDAIMLELDRGLTEPQIQVVCRQMLEALNFLHSKRIIHRDLKAGNVLMTLEGDIRLADFGVSAKNLKTLQKRDSFIGTPYWMAPEVVMCETMKDTPYDYKADIWSLGITLIEMAQIEPPHHELNPMRVLLKIAKSDPPTLLTPSKWSVEFRDFLKIALDKNPETRPSAAQLLEHPFVSSITSNKALRELVAEAKAEVMEEIEDGRDEGEEEDAVDAASTLENHTQNSSEVSPPSLNADKPLEESPSTPLAPSQSQDSVNEPCSQPSGDRSLQTTSPPVVAPGNENGLAVPVPLRKSRPVSMDARIQVAQEKQVAEQGGDLSPAANRSQKASQSRPNSSALETLGGEKLANGSLEPPAQAAPGPSKRDSDCSSLCTSESMDYGTNLSTDLSLNKEMGSLSIKDPKLYKKTLKRTRKFVVDGVEVSITTSKIISEDEKKDEEMRFLRRQELRELRLLQKEEHRNQTQLSNKHELQLEQMHKRFEQEINAKKKFFDTELENLERQQKQQVEKMEQDHAVRRREEARRIRLEQDRDYTRFQEQLKLMKKEVKNEVEKLPRQQRKESMKQKMEEHTQKKQLLDRDFVAKQKEDLELAMKRLTTDNRREICDKERECLMKKQELLRDREAALWEMEEHQLQERHQLVKQQLKDQYFLQRHELLRKHEKEREQMQRYNQRMIEQLKVRQQQEKARLPKIQRSEGKTRMAMYKKSLHINGGGSAAEQREKIKQFSQQEEKRQKSERLQQQQKHENQMRDMLAQCESNMSELQQLQNEKCHLLVEHETQKLKALDESHNQNLKEWRDKLRPRKKALEEDLNQKKREQEMFFKLSEEAECPNPSTPSKAAKFFPYSSADAS [STK10]”, the “solubility in G1/S (log2)” value in data set [1] is 0.0626. The melting temperature in data set [2] (cell cycle stage: G1/S) amounted to 48.1 °C; in data set [2] (cell cycle stage: mitosis) it was 48.2 °C. Besides, the “solubility change mitosis (log2)” value in data set [3] was -0.0397. Also, the values for the thermal stability score in data set [4] (setting [5]) and in data set [4] (cell cycle stage: mitosis) were 1.19 and 2.43, respectively.

As to “MSRRYDSRTTIFSPEGRLYQVEYAMEAIGHAGTCLGILANDGVLLAAERRNIHKLLDEVFFSEKIYKLNEDMACSVAGITSDANVLTNELRLIAQRYLLQYQEPIPCEQLVTALCDIKQAYTQFGGKRPFGVSLLYIGWDKHYGFQLYQSDPSGNYGGWKATCIGNNSAAAVSMLKQDYKEGEMTLKSALALAIKVLNKTMDVSKLSAEKVEIATLTRENGKTVIRVLKQKEVEQLIKKHEEEEAKAEREKKEKEQKEKDK [PSMA4]”, the “solubility in G1/S (log2)” value in data set [1] was 0.45. Further, the melting temperature in data set [2] (cell cycle stage: G1/S) is 59.5 °C; in data set [2] (cell cycle stage: mitosis), 60.5 °C. The “solubility change mitosis (log2)” value in data set [3] was -0.0614. The thermal stability score in data set [4] (setting [5]) is -0.647; in data set [4] (cell cycle stage: mitosis), -0.541.
